The results in this text go back to patent US10428140B2, “Anti-EphA4 antibody” (EISAI R&D MANAGEMENT CO., LTD., priority 2015, dated 2019).

B1: 93 (antibody, V domains shown)
VL: EIVMTQSPATLSVSPGERATLSCRASENIYRNLAWYQQKPGQSPRLLIYAATNLADGIPARFSGSGSGTEYTLTISSLQSEDFAVYYCQHFWGTPWTFGQGTKVEIK
VH: QVQLVQSGSELKKPGASVKVSCKASGYTFTDYSMHWVRQAPGQGLEWMGWINTETGEPTYAQGFTGRFVFSLDTSVSTAYLQISSLKAEDTAVYYCARIPLYYYGSRYWYFDVWGQGTTVTVSS
modifications: constant regions without entry; synthetic humanized antibody light chain variable region sequence; synthetic humanized antibody heavy chain variable region sequence
B2: 138 (antibody, V domains shown)
VH: B1 VH with V2I, E46K
VL: DIQMTQSPSSLSASVGDRVTITCRASENIYRNLAWYQQKPGKAPKLLVYAATNLADGVPSRFSGSGSGTDYTLTISSLQPEDFATYYCQHFWGTPWTFGQGTKVEIK
modifications: synthetic humanized antibody heavy chain variable region sequence; synthetic humanized antibody light chain variable region sequence
B3: 141 (antibody, V domains shown)
VH: B1 VH with Q62D, G63D, T65K
VL: B2 VL
modifications: synthetic humanized antibody heavy chain variable region sequence; synthetic humanized antibody light chain variable region sequence
B4: 73 (antibody, V domains shown)
VH: B1 VH with V2I, E46K, Q62D, G63D, T65K
VL: B1 VL
modifications: synthetic humanized antibody heavy chain variable region sequence; synthetic humanized antibody light chain variable region sequence
B5: 139 (antibody)
VH: B1 VH
VL: B2 VL
chain: ASTKGPSVFPLAPSSRSTSESTAALGCLVKDYFPEPVTVSWNSGALTSGVHTFPAVLQSSGLYSLSSVVTVPSSNFGTQTYTCNVDHKPSNTKVDKTVERKSCVECPPCPAPPAAAPSVFLFPPKPKDTLMISRTPEVTCVVVDVSHEDPEVQFNWYVDGVEVHNAKTKPREEQFNSTFRVVSVLTVVHQDWLNGKEYKCKVSNKGLPAPIEKTISKTKGQPREPQVYTLPPSREEMTKNQVSLTCLVKGFYPSDIAVEWESNGQPENNYKTTPPMLDSDGSFFLYSKLTVDKSRWQQGNVFSCSVMHEALHNHYTQKSLSLSPG
modifications: synthetic humanized antibody heavy chain variable region sequence; synthetic humanized antibody light chain variable region sequence; synthetic antibody constant region sequence
B6: 140 (antibody, V domains shown)
VH: B1 VH with E46K
VL: B2 VL
modifications: synthetic humanized antibody heavy chain variable region sequence; synthetic humanized antibody light chain variable region sequence
B7: 95 (antibody, V domains shown)
VL: B1 VL
VH: B1 VH with Q62D, G63D, T65K
modifications: constant regions without entry; synthetic humanized antibody light chain variable region sequence; synthetic humanized antibody heavy chain variable region sequence
B8: 94 (antibody, V domains shown)
VL: B1 VL
VH: B1 VH with E46K
modifications: constant regions without entry; synthetic humanized antibody light chain variable region sequence; synthetic humanized antibody heavy chain variable region sequence
B9: 96 (antibody, V domains shown)
VL: B1 VL
VH: B1 VH with E46K, Q62D, G63D, T65K
modifications: constant regions without entry; synthetic humanized antibody light chain variable region sequence; synthetic humanized antibody heavy chain variable region sequence
B10: 71 (antibody, V domains shown)
VH: B1 VH with V2I, E46K
VL: B1 VL
modifications: synthetic humanized antibody heavy chain variable region sequence; synthetic humanized antibody light chain variable region sequence

Residue numbers refer to the chain shown, from its start.

One assay concerns the target T1, human EphA3 (Homo sapiens, UniProt P29320).
T1 construct: a protein of the extracellular region of each human Eph receptor fused with the SEAP protein and the His tag; made in house; host or cells: Expi293F cells (culture supernatant)
T1 sequence (P29320 21-541 limits assumed): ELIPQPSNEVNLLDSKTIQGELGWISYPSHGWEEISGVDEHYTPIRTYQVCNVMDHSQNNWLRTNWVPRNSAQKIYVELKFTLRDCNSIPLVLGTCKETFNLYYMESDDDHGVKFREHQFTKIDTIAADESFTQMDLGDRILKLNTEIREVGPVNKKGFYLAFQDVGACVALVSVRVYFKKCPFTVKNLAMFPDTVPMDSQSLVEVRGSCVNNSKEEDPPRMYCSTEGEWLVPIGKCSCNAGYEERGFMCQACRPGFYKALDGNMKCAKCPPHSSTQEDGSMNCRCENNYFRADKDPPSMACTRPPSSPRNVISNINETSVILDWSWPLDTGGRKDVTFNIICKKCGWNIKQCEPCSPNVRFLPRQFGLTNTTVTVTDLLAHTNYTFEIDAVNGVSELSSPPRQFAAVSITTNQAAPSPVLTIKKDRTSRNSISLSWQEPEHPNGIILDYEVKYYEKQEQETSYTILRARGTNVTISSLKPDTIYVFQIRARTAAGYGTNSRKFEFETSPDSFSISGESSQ
In words: Selectivity ELISA of humanized antibodies for human Eph receptor. The format is binding. To be noted: coated protein 1 nM. The essentials: (§1)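 Capture ELISA: anti-6-His coat, 1% BlockAce block, Eph ECD-SEAP-His (1 nM final, Expi293F supernatant) 1 h RT, humanized Ab 1 h RT, HRP anti-IgG 1 h RT, TMB, H2SO4 stop, A450.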
Take B1: the “hEphA3-SEAP-: absorbance at 450 nm, percentage with respect to hEphA4-SEAP-His as 100%” value was 5.1%.

Turning to B2, the “hEphA3-SEAP-: absorbance at 450 nm, percentage with respect to hEphA4-SEAP-His as 100%” value is 4.9%.

Regarding B3, the “hEphA3-SEAP-: absorbance at 450 nm, percentage with respect to hEphA4-SEAP-His as 100%” value worked out at 5.3%.

With B4, the “hEphA3-SEAP-: absorbance at 450 nm, percentage with respect to hEphA4-SEAP-His as 100%” value was determined as 5.8%.

Take B5: the “hEphA3-SEAP-: absorbance at 450 nm, percentage with respect to hEphA4-SEAP-His as 100%” value is 5.9%.

As for B6, the “hEphA3-SEAP-: absorbance at 450 nm, percentage with respect to hEphA4-SEAP-His as 100%” value was found to be 5.5%.

B7: the “hEphA3-SEAP-: absorbance at 450 nm, percentage with respect to hEphA4-SEAP-His as 100%” value was determined as 4.8%.

Regarding B8, the “hEphA3-SEAP-: absorbance at 450 nm, percentage with respect to hEphA4-SEAP-His as 100%” value is recorded as 6.8%.

Turning to B9, the “hEphA3-SEAP-: absorbance at 450 nm, percentage with respect to hEphA4-SEAP-His as 100%” value is given as 5.5%.

Turning to B10, the “hEphA3-SEAP-: absorbance at 450 nm, percentage with respect to hEphA4-SEAP-His as 100%” value came out at 5.6%.

A further assay has as its target T2, human EphA7 (Homo sapiens, UniProt Q15375).
T2 construct: a protein of the extracellular region of each human Eph receptor fused with the SEAP protein and the His tag; made in house; host or cells: Expi293F cells (culture supernatant)
T2 sequence (Q15375 28-555 limits assumed): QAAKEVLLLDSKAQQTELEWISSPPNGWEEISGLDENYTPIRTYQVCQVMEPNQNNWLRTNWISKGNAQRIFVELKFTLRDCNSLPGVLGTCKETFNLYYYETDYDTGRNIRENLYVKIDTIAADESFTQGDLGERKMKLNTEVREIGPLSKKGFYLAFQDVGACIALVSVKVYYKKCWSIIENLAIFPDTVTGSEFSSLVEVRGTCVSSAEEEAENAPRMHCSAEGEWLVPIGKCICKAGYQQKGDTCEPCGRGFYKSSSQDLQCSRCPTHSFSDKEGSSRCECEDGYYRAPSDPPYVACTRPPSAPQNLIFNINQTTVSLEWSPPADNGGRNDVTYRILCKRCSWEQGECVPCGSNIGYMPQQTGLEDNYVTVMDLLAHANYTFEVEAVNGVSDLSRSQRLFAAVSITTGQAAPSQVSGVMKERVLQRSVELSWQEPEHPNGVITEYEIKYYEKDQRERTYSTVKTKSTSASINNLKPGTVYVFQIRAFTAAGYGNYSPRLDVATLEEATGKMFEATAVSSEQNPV
Described as above. Particulars: coated protein 1 nM. The format is binding. In short, it runs like this:
as §1
B1: the “hEphA7-SEAP-: absorbance at 450 nm, percentage with respect to hEphA4-SEAP-His as 100%” value is 4.9%.

On to B2, for which the “hEphA7-SEAP-: absorbance at 450 nm, percentage with respect to hEphA4-SEAP-His as 100%” value is 4.9%.

For the molecule B3, the “hEphA7-SEAP-: absorbance at 450 nm, percentage with respect to hEphA4-SEAP-His as 100%” value amounted to 5.3%.

As to B4, the “hEphA7-SEAP-: absorbance at 450 nm, percentage with respect to hEphA4-SEAP-His as 100%” value is 5.6%.

For the molecule B5, the “hEphA7-SEAP-: absorbance at 450 nm, percentage with respect to hEphA4-SEAP-His as 100%” value was 5.5%.

As for B6, the “hEphA7-SEAP-: absorbance at 450 nm, percentage with respect to hEphA4-SEAP-His as 100%” value turned out to be 5.2%.

In the case of B7, the “hEphA7-SEAP-: absorbance at 450 nm, percentage with respect to hEphA4-SEAP-His as 100%” value amounted to 4.4%.

Turning to B8, the “hEphA7-SEAP-: absorbance at 450 nm, percentage with respect to hEphA4-SEAP-His as 100%” value is given as 6.1%.

As for B9, the “hEphA7-SEAP-: absorbance at 450 nm, percentage with respect to hEphA4-SEAP-His as 100%” value was 5.3%.

As for B10, the “hEphA7-SEAP-: absorbance at 450 nm, percentage with respect to hEphA4-SEAP-His as 100%” value worked out at 5.2%.

A further assay addresses T3, human EphA8 (Homo sapiens, UniProt P29322).
T3 construct: a protein of the extracellular region of each human Eph receptor fused with the SEAP protein and the His tag; made in house; host or cells: Expi293F cells (culture supernatant)
T3 sequence (P29322 28-542 limits assumed): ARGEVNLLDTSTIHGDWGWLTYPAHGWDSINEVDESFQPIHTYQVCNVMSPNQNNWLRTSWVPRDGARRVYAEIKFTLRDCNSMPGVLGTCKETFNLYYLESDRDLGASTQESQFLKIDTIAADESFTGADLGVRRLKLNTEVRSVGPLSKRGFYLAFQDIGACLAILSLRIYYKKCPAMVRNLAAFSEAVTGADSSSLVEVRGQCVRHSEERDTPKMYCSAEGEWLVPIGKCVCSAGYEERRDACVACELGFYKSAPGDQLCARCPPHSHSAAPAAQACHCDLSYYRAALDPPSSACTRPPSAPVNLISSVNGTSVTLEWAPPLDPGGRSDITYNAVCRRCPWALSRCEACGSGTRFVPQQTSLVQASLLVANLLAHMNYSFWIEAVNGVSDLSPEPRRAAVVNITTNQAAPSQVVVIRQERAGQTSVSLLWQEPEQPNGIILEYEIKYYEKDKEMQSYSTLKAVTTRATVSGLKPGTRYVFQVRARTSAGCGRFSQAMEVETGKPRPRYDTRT
Described as above. The assay is classed as binding. To be noted: coated protein 1 nM. The essentials:
as §1
Take B1: the “hEphA8-SEAP-: absorbance at 450 nm, percentage with respect to hEphA4-SEAP-His as 100%” value amounted to 5.0%.

In the case of B2, the “hEphA8-SEAP-: absorbance at 450 nm, percentage with respect to hEphA4-SEAP-His as 100%” value was found to be 5.4%.

With B3, the “hEphA8-SEAP-: absorbance at 450 nm, percentage with respect to hEphA4-SEAP-His as 100%” value is 5.5%.

For the molecule B4, the “hEphA8-SEAP-: absorbance at 450 nm, percentage with respect to hEphA4-SEAP-His as 100%” value came to 5.8%.

As to B5, the “hEphA8-SEAP-: absorbance at 450 nm, percentage with respect to hEphA4-SEAP-His as 100%” value came out at 6.0%.

Turning to B6, the “hEphA8-SEAP-: absorbance at 450 nm, percentage with respect to hEphA4-SEAP-His as 100%” value is on record as 5.4%.

For the molecule B7, the “hEphA8-SEAP-: absorbance at 450 nm, percentage with respect to hEphA4-SEAP-His as 100%” value was found to be 4.4%.

Turning to B8, the “hEphA8-SEAP-: absorbance at 450 nm, percentage with respect to hEphA4-SEAP-His as 100%” value was 7.0%.

Consider B9, for which the “hEphA8-SEAP-: absorbance at 450 nm, percentage with respect to hEphA4-SEAP-His as 100%” value was found to be 5.4%.

Turning to B10, the “hEphA8-SEAP-: absorbance at 450 nm, percentage with respect to hEphA4-SEAP-His as 100%” value is 5.3%.
